From article PMC4900556, “Connexin43 Forms Supramolecular Complexes through Non-Overlapping Binding Sites for Drebrin, Tubulin, and ZO-1” (PLoS ONE, 2016)

What was measured:
[1] = biological target: 15N-labeled Cx43CT^234-382 Y265D, GST tag cleaved (UniProt P08050); assay: NMR titration; 15N-HSQC, 600 MHz; 15N-labeled Cx43-CT constant at 50 μM in 1X PBS pH 7.5, unlabeled Drb^1-300 added from 50 to 700 μM; KD by nonlinear fitting of the decrease in signal intensity of at least three residues of each area
Sequence of 15N-labeled Cx43CT^234-382 Y265D, GST tag cleaved (UniProt P08050) (P08050 234-382 Y265D): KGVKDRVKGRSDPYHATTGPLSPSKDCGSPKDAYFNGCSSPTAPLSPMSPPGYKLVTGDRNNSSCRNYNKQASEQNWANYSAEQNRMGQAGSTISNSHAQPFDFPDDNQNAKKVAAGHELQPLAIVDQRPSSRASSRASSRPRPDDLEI

[2] = biological target: 15N-labeled Cx43CT^234-382 Y265D, GST tag cleaved (UniProt P08050 234-382, Y265D, 15N-labeled); assay: NMR; Area 3 (residues K303, N312, S314)
[3] = biological target: T1, 15N-labeled Cx43-CT^234-382 (WT), GST tag cleaved (UniProt P08050 234-382, 15N-labeled); assay: NMR titration; 15N-HSQC, 600 MHz; 15N-labeled Cx43-CT constant at 50 μM in 1X PBS pH 7.5, unlabeled Drb^1-300 added from 50 to 700 μM; KD by nonlinear fitting of the decrease in signal intensity of at least three residues of each area; details: both partners purified
T1 construct: Construct used in the NMR titrations; source: E. coli BL21 DE3, purified (glutathione agarose), GST tag cleaved on the beads with Turbo 3C
T1 sequence (P08050 234-382): as the sequence (P08050 234-382 Y265D) above, with D32Y counted along it

KD of Area 3 [1]: 500 µM
Kd [2]: 466 µM
KD of Area 1 (264–275) [3]: 283 µM
KD of Area 2 (282–290) [3]: 279 µM
KD of Area 3 (299–321) [3]: 344 µM
B1: Drebrin A 1–300 (Drb^1-300), untagged (domain or fragment, UniProt Q9QXS6 1-300, looked up)
chain: MAGVSFSGHRLELLAAYEEVIREESAADWALYTYEDGSDDLKLAASGEGGLQELSGHFENQKVMYGFCSVKDSQAALPKYVLINWVGEDVPDARKCACASHVAKVAEFFQGVDVIVNASSVEDIDAGAIGQRLSNGLARLSSPVLHRLRLREDENAEPVGTTYQKTDAAVEMKRINREQFWEQAKKEEELRKEEERKKALDARLRFEQERMEQERQEQEERERRYREREQQIEEHRRKQQSLEAEEAKRRLKEQSIFGDQRDEEEESQMKKSESEVEEAAAIIAQRPDNPREFFRQQERV
notes: Drebrin A residues 1-300; also called drebrin amino acids 1–300; N-terminal fragment of drebrin; source: E. coli Rosetta cells, purified on glutathione-agarose column, GST tag digested and captured with a Thrombin kit
